Measurements: the supplement of paper PMC10567573
± gives the standard deviation.

Assay: protein stability index of a GFP-peptide fusion (GPS, HEK-293T) (PSI 1-6); higher = more stable
[1] = treatment: DMSO, c terminus: a fixed tail appended
[2] = treatment: MLN4924 1 uM, 8 h, c terminus: a fixed tail appended
[3] = treatment: DMSO, c terminus: native
[4] = treatment: MLN4924 1 uM, 8 h, c terminus: native
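Also: 24-mer peptide tiles fused after GFP, lentivirally expressed, FACS-sorted into six equal bins by GFP/DsRed ratio, decoded by Illumina sequencing, PSI is the read-weighted mean bin number.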

Sequence | protein stability index [1] | protein stability index [2] | protein stability index [3] | protein stability index [4]
KCRMEESNAERGTAEPFPRLHNLY [CBY2] | 2.85 ± 0.27 | 2.78 ± 0.15 | – | –
KDQRNPPSLGRVLPDPREACGSSS [RBMY1A1] | 4.78 ± 0.17 | 5.18 ± 0.095 | – | –
KDSHDPLPSWAELLRPKYRAPQGC [PBXIP1] | 3.01 ± 0.37 | 3.19 ± 0.2 | – | –
KEEEEEDCSEEYLERQLQAEFIES [TAF7L] | 5.36 ± 0.36 | 5.56 ± 0.12 | – | –
KEVFASRISNPSDDNSCEDLEEER [PCMTD2] | 5.55 ± 0.33 | 5.41 ± 0.31 | – | –
KFAMYPPSMIATGSVGAAICGLQQ [CCND2] | 2.4 ± 0.52 | 2.2 ± 0.4 | – | –
KFLVGTVGSDPLIKSDEECRDLVD [KLHL20] | 4.41 ± 0.78 | 4.14 ± 0.47 | – | –
KGNRTARIIDKPRVIEVLPRGATA [SEPHS2] | 3.64 ± 0.22 | 3.77 ± 0.2 | – | –
KHAGKDPVRDECEERNRFTETREE [FAM9B] | 5.54 ± 0.2 | 5.49 ± 0.2 | – | –
KIESLMDEIEFLKKLHEEELRDLQ [PRPH] | 3.14 ± 0.23 | 3.61 ± 0.35 | – | –
KILDELEKVLDQVETELQRRNEET [GDAP1] | 3.08 ± 0.1 | 3.53 ± 0.081 | – | –
KIQASGETPNSLNTTVIPNGSMAM [LYSMD4] | 4.22 ± 0.097 | 4.09 ± 0.2 | – | –
KKIFAQLDSIIDDRVILSSSTSCL [CRYL1] | 2.35 ± 0.15 | 2.58 ± 0.3 | – | –
KKKVGNYYTTPIYRFRMKCHLCVN [YJU2B] | 2.21 ± 0.33 | 2.19 ± 0.3 | – | –
KLALDMEISAYRKLLQGEEERLKL [LMNB1] | 3.24 ± 0.23 | 3.28 ± 0.36 | – | –
KLEEERAKLHDVELHQVAERVEAL [GNB5] | 5 ± 0.34 | 5.15 ± 0.18 | – | –
KLKALHVDSAEYSCLKAIVLFTSD [NR2F2] | 2.45 ± 0.36 | 2.27 ± 0.15 | – | –
KLKKGICEALEDSDGRQDSPAGEL [MATN2] | 5.3 ± 0.28 | 5.31 ± 0.15 | – | –
KLREKERKKEAKRKISSLSFTLEE [FAM50A] | 4.29 ± 0.3 | 4.53 ± 0.34 | – | –
KLTREQEELEEALEVERQENEQRR [MNAT1] | 5.59 ± 0.18 | 5.45 ± 0.27 | – | –
KPGEGRSALFAGNEWRRPIIQFVE [TRIM29] | 2.34 ± 0.35 | 2.86 ± 0.46 | – | –
KQKVSRIERSSSFSSITDSTMSLN [DVL3] | 4.27 ± 0.049 | 4.43 ± 0.16 | – | –

Sequence | protein stability index [1] | protein stability index [2] | protein stability index [3] | protein stability index [4]
KQLICPICLEMFTKPVVILPCQHN [TRIM63] | 2.97 ± 0.31 | 3.01 ± 0.43 | – | –
KQQENATSCSLELIGDLIGHSSSV [WDR41] | 3.02 ± 0.37 | 3.17 ± 0.11 | – | –
KRKLGLTALVGLRQNLSKSWLDVQ [TPD52L3] | 2.17 ± 0.71 | 2.16 ± 0.42 | – | –
KSCYNGRFQLLYVACGMVHLLIPE [DNAAF3] | 3.37 ± 0.63 | 2.77 ± 0.36 | – | –
KSIDPVLMAPTCVFLASKVEEFGV [CCNC] | 1.92 ± 0.11 | 2.05 ± 0.34 | – | –
KVAKLLGYSTHADFVLEMNTAKST [NLN] | 1.9 ± 0.33 | 2.35 ± 0.24 | – | –
KVRPSHKRCIVILREIPETTPIEE [LARP4] | 2.59 ± 0.21 | 2.58 ± 0.35 | – | –
KVSYLKQKGLGGAMVWALDLDDFA [CHIT1] | 1.85 ± 0.49 | 2.36 ± 0.3 | – | –
KYDPTIEDSYRKQVEVDAQQCMLE [RAP1B] | 4.55 ± 0.12 | 4.66 ± 0.11 | – | –
LAFVGGLPLAYQQTSAFARQPRDE [TMEM175] | 3 ± 0.31 | 3.06 ± 0.15 | – | –
LAHLGRHMEALEIAANLENKATNT [C8orf76] | 4.22 ± 0.17 | 4.29 ± 0.37 | – | –
LAKTGEGSYGVVFKCRNKTSGQVV [CDKL4] | 2.72 ± 0.31 | 2.75 ± 0.2 | – | –
LALHPEAPGLYNHLPWQYHAGQGG [CCDC3] | 3.2 ± 0.5 | 2.63 ± 0.28 | – | –
LALLLCAGQVTALPVNSPMNKGDT [CHGA] | 2.68 ± 0.83 | 2.59 ± 0.5 | – | –
LASYLEKVRALEEANADLEVKIRD [KRT13] | 3.52 ± 0.22 | 3.56 ± 0.26 | – | –
LCCAFSTDGSVLAAGTHDGSVYFW [WSB1] | 2.78 ± 0.78 | 2.45 ± 0.78 | – | –
LCEKAKEILTKESNVQEVRCPVTV [PPP2CA] | 4.11 ± 0.32 | 4.44 ± 0.19 | – | –
LCPCLRSGIGSSQALGPSPPLFG [MYCL] | – | – | 2.54 ± 0.84 | 2.11 ± 0.26
LDDEDDTSIGMPSLMYRSPPGAEE [RETREG3] | 5.44 ± 0.23 | 5.39 ± 0.26 | – | –
LDKSTTGVSEILLKTQMKMSLKCL [FEM1B] | 2.6 ± 0.31 | 2.17 ± 0.26 | – | –
LEDELDKSVQGTGLAFIAFTEAMT [SLC6A17] | 2.73 ± 0.35 | 2.82 ± 0.51 | – | –
LEEFQLALKHYVESASSQSGCLRI [NECAB1] | 2.21 ± 0.36 | 2.16 ± 0.17 | – | –

Sequence | protein stability index [1] | protein stability index [2] | protein stability index [3] | protein stability index [4]
LEETEPPLEPEDALSDAEFEGEGD [P3H4] | 5.49 ± 0.33 | 5.55 ± 0.17 | – | –
LEKDFSIYGGELGPMMKLKRHFVA [ACSBG2] | 2.23 ± 0.2 | 2.26 ± 0.53 | – | –
LEKGADVNRKSVKGNTALHDCAES [FEM1C] | 5.18 ± 0.29 | 5.38 ± 0.28 | – | –
LELLVNNGADVNIQSKDGKSPLHM [ANKRD44] | 4.06 ± 0.23 | 4.01 ± 0.3 | – | –
LFAGPHSTLTPPCSPPEDGLCPH [SNX8] | – | – | 3.79 ± 0.52 | 3.85 ± 0.22
LFAPLKLQMEFKAVQQVQRLPFLS [POMP] | 2.51 ± 0.82 | 2.46 ± 0.75 | – | –
LFQIDVYDFMNSAFSPIVILTERV [MIA2] | 2.75 ± 0.73 | 3.06 ± 0.91 | – | –
LGAVAVFAVGYIKISWSTWGEMTL [SLC19A2] | 2.97 ± 0.68 | 2.97 ± 0.73 | – | –
LGCYAVYSLLYLEHKGWYSWVLSM [CLPTM1] | 3.04 ± 0.42 | 3.27 ± 0.65 | – | –
LGGAAFLGTAIFIEADRRRAQLHV [SPNS1] | 2.35 ± 0.74 | 2.32 ± 0.53 | – | –
LGKTEQGFENMDFFTLDLEHIADA [TRIM63] | 3.85 ± 0.21 | 3.8 ± 0.12 | – | –
LGQDRQVPLWGQLLLFLVFVIVLF [EMD] | 2.83 ± 0.58 | 2.79 ± 0.76 | – | –
LGQEFDEVTADDRKVKSTITLDGG [FABP4] | 5.16 ± 0.21 | 5.32 ± 0.33 | – | –
LGTPTSSTPRPSITPTKKIELDRT [C2CD2L] | 4.94 ± 0.18 | 4.88 ± 0.24 | – | –
LHKFPYRMVPALPPKRMLGADREF [SNX8] | 2.55 ± 0.15 | 2.67 ± 0.32 | – | –
LHSLDDFYIGKYFGGVLEYFMIQA [RHOBTB3] | 2.78 ± 0.37 | 2.8 ± 0.63 | – | –
LHSQEDDDSSSESGSGNGSSTLNP [NOL4L] | 5.39 ± 0.2 | 5.48 ± 0.17 | – | –
LIGLISDRLRRNWPPSFLSEFRAL [SPNS1] | 2.19 ± 0.35 | 2.1 ± 0.2 | – | –
LITIATFQIAANLSMERYALVFGV [SLC19A2] | 3.02 ± 0.15 | 3.12 ± 0.59 | – | –
LKEMYDADLLEEEVIISWSEKASK [EIF5] | 3.33 ± 0.45 | 3.88 ± 0.44 | – | –
LKERCAQDACQAQAREKELLELQS [CCDC89] | 4.1 ± 0.26 | 4 ± 0.51 | – | –
